# Earlier results, collected in publication PMC8689690.
# Target: IL-28R1 (Homo sapiens) (UniProt Q8IU57)
# Assay: ELISA
# UniProt Q8IU57, sequence (Q8IU57 21-228): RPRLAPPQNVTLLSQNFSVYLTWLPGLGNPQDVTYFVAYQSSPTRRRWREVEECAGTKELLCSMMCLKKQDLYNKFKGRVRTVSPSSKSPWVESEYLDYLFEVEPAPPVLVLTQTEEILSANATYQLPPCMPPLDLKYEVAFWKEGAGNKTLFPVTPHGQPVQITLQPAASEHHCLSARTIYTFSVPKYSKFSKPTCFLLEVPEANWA
row,Substance,Kd
1,IFNL1 (from UniProt Q8IU54),15 nM
2,IFNL3 (from UniProt Q8IZI9),65 nM
